# From paper PMC4678481, “Structural insights into the mechanism defining substrate affinity in Arabidopsis thaliana dUTPase: the role of tryptophan 93 in ligand orientation” (BMC Research Notes, 2015)
# B1: Arabidopsis dUTPase (Arabidopsis thaliana) (protein)
# chain: MACVNEPSPKLQKLDRNGIHGDSSPSPFFKVKKLSEKAVIPTRGSPLSAGYDLSSAVDSKVPARGKALIPTDLSIAVPEGTYARIAPRSGLAWKHSIDVGAGVIDADYRGPVGVILFNHSDADFEVKFGDRIAQLIIEKIVTPDVVEVDDLDETVRGDGGFGSTGV
# notes: full length, 166 residues; His tag removed by thrombin, extra Gly-Ser-His at N-terminus; expressed in E. coli JM103 (DE3); homotrimer
# Substrate: O=c1ccn([C@H]2C[C@H](O)[C@@H](COP(=O)(O)OP(=O)(O)OP(=O)(O)O)O2)c(=O)[nH]1
# Assay: purified protein
# Assay type: biochemical, Arabidopsis thaliana
# Settings: pH 7.6, 25 °C, 5 mM MgCl2, 100 mM KCl, 0.25 mM bicine, 50 nM enzyme
protein,measurement,value
B1,Km,0.4 ± 0.1 µM
